Measured values: patent publication US9993529B2, “Stable formulations of a hyaluronan-degrading enzyme” (Halozyme, Inc., priority 2011, dated 2018)

Assay: RP-HPLC insulin apparent solubility / percent recovery (content)
Details: 7 days at 2-8° C.
How it was run: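 Vial samples withdrawn at each time point, centrifuged, held at 4 °C, run in duplicate by RP-HPLC. Apparent solubility = combined insulin main and desamido peak areas as percent versus standards/initial formulation; purity = main insulin peak as percent of all insulin species.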

Regular Insulin: mature human insulin, SEQ ID NOS: 103 and 104
Solubility of regular Insulin (0.2% methylparaben + […] m-cresol, pH 6.6, NaCl 50 mM): 15.3%
Solubility of regular Insulin (0.2% methylparaben + […] m-cresol, pH 6.6, NaCl 80 mM): 9.0%
Solubility of regular Insulin (0.2% methylparaben + […] m-cresol, pH 6.6, NaCl 140 mM): 5.8%
Solubility of regular Insulin (0.2% methylparaben + […] m-cresol, pH 6.8, NaCl 50 mM): 34.1%
Solubility of regular Insulin (0.2% methylparaben + […] m-cresol, pH 6.8, NaCl 110 mM): 11.4%
Solubility of regular Insulin (0.2% methylparaben + […] m-cresol, pH 7.0, NaCl 50 mM): 86.9%
Solubility of regular Insulin (0.2% methylparaben + […] m-cresol, pH 7.0, NaCl 80 mM): 46.6%
Solubility of regular Insulin (0.2% methylparaben + […] m-cresol, pH 7.0, NaCl 140 mM): 15.9%
Solubility of regular Insulin (0.2% methylparaben + […] m-cresol, pH 7.2, NaCl 80 mM): 90.6%
Solubility of regular Insulin (0.2% methylparaben + […] m-cresol, pH 7.2, NaCl 110 mM): 47.1%
Solubility of regular Insulin (0.2% methylparaben + […] m-cresol, pH 7.2, NaCl 140 mM): 32.9%
Solubility of regular Insulin (0.2% methylparaben + […] m-cresol, pH 7.4, NaCl 50 mM): 98.1%
Solubility of regular Insulin (0.2% methylparaben + […] m-cresol, pH 7.4, NaCl 80 mM): 97.7%
Solubility of regular Insulin (0.2% methylparaben + […] m-cresol, pH 7.4, NaCl 110 mM): 94.6%
Solubility of regular Insulin (0.2% methylparaben + […] m-cresol, pH 7.4, NaCl 140 mM): 59.1%
Solubility of regular Insulin (0.2% methylparaben + […] m-cresol, pH 7.6, NaCl 50 mM): 98.1%
Solubility of regular Insulin (0.2% methylparaben + […] m-cresol, pH 7.6, NaCl 80 mM): 97.9%
Solubility of regular Insulin (0.2% methylparaben + […] m-cresol, pH 7.6, NaCl 140 mM): 95.4%
Solubility of regular Insulin (0.2% phenol + […] m-cresol, pH 6.6, NaCl 50 mM): 26.8%
Solubility of regular Insulin (0.2% phenol + […] m-cresol, pH 6.6, NaCl 80 mM): 8.7%
Solubility of regular Insulin (0.2% phenol + […] m-cresol, pH 6.6, NaCl 110 mM): 6.5%
Solubility of regular Insulin (0.2% phenol + […] m-cresol, pH 6.6, NaCl 140 mM): 5.8%
Solubility of regular Insulin (0.2% phenol + […] m-cresol, pH 6.8, NaCl 50 mM): 38.4%
Solubility of regular Insulin (0.2% phenol + […] m-cresol, pH 6.8, NaCl 80 mM): 17.1%
Solubility of regular Insulin (0.2% phenol + […] m-cresol, pH 6.8, NaCl 140 mM): 6.5%
Solubility of regular Insulin (0.2% phenol + […] m-cresol, pH 7.0, NaCl 50 mM): 100.3%
Solubility of regular Insulin (0.2% phenol + […] m-cresol, pH 7.0, NaCl 80 mM): 35.7%
Solubility of regular Insulin (0.2% phenol + […] m-cresol, pH 7.0, NaCl 110 mM): 17.7%
Solubility of regular Insulin (0.2% phenol + […] m-cresol, pH 7.0, NaCl 140 mM): 11.6%
Solubility of regular Insulin (0.2% phenol + […] m-cresol, pH 7.2, NaCl 80 mM): 92.2%
Solubility of regular Insulin (0.2% phenol + […] m-cresol, pH 7.2, NaCl 110 mM): 37.4%
Solubility of regular Insulin (0.2% phenol + […] m-cresol, pH 7.2, NaCl 140 mM): 18.9%
Solubility of regular Insulin (0.2% phenol + […] m-cresol, pH 7.4, NaCl 80 mM): 99.2%
Solubility of regular Insulin (0.2% phenol + […] m-cresol, pH 7.4, NaCl 110 mM): 87.8%
Solubility of regular Insulin (0.2% phenol + […] m-cresol, pH 7.4, NaCl 140 mM): 40.6%
Solubility of regular Insulin (0.2% phenol + […] m-cresol, pH 7.6, NaCl 80 mM): 99.2%
Solubility of regular Insulin (0.2% phenol + […] m-cresol, pH 7.6, NaCl 110 mM): 98.5%
Solubility of regular Insulin (0.2% phenol + […] m-cresol, pH 7.6, NaCl 140 mM): 82.2%
Solubility of regular Insulin ([…] phenol + […] m-cresol, pH 6.6, NaCl 50 mM): 31.2%
Solubility of regular Insulin ([…] phenol + […] m-cresol, pH 6.6, NaCl 80 mM): 18.6%
Solubility of regular Insulin ([…] phenol + […] m-cresol, pH 6.6, NaCl 140 mM): 12.9%
Solubility of regular Insulin ([…] phenol + […] m-cresol, pH 6.8, NaCl 50 mM): 66.6%
Solubility of regular Insulin ([…] phenol + […] m-cresol, pH 6.8, NaCl 80 mM): 24.9%
Solubility of regular Insulin ([…] phenol + […] m-cresol, pH 7.0, NaCl 50 mM): 96.7%
Solubility of regular Insulin ([…] phenol + […] m-cresol, pH 7.0, NaCl 80 mM): 80.8%
Solubility of regular Insulin ([…] phenol + […] m-cresol, pH 7.0, NaCl 110 mM): 32.9%
Solubility of regular Insulin ([…] phenol + […] m-cresol, pH 7.0, NaCl 140 mM): 17.1%
Solubility of regular Insulin ([…] phenol + […] m-cresol, pH 7.2, NaCl 80 mM): 96.4%
Solubility of regular Insulin ([…] phenol + […] m-cresol, pH 7.2, NaCl 110 mM): 58.7%
Solubility of regular Insulin ([…] phenol + […] m-cresol, pH 7.2, NaCl 140 mM): 33.1%
Solubility of regular Insulin ([…] phenol + […] m-cresol, pH 7.4, NaCl 50 mM): 96.7%
Solubility of regular Insulin ([…] phenol + […] m-cresol, pH 7.4, NaCl 80 mM): 97.3%
Solubility of regular Insulin ([…] phenol + […] m-cresol, pH 7.4, NaCl 110 mM): 94.2%
Solubility of regular Insulin ([…] phenol + […] m-cresol, pH 7.4, NaCl 140 mM): 57.9%
Solubility of regular Insulin ([…] phenol + […] m-cresol, pH 7.6, NaCl 50 mM): 97.2%
Solubility of regular Insulin ([…] phenol + […] m-cresol, pH 7.6, NaCl 80 mM): 97.1%
Solubility of regular Insulin ([…] phenol + […] m-cresol, pH 7.6, NaCl 110 mM): 97.1%
Solubility of regular Insulin ([…] phenol + […] m-cresol, pH 7.6, NaCl 140 mM): 91.7%
